Measurements reported in patent US20230279089A1 (GlaxoSmithKline, published 2023).

T1: Cyno TLL1 (cyno, UniProt A0A1D5QYV0 148-1013 (rhesus entry))
T1 sequence: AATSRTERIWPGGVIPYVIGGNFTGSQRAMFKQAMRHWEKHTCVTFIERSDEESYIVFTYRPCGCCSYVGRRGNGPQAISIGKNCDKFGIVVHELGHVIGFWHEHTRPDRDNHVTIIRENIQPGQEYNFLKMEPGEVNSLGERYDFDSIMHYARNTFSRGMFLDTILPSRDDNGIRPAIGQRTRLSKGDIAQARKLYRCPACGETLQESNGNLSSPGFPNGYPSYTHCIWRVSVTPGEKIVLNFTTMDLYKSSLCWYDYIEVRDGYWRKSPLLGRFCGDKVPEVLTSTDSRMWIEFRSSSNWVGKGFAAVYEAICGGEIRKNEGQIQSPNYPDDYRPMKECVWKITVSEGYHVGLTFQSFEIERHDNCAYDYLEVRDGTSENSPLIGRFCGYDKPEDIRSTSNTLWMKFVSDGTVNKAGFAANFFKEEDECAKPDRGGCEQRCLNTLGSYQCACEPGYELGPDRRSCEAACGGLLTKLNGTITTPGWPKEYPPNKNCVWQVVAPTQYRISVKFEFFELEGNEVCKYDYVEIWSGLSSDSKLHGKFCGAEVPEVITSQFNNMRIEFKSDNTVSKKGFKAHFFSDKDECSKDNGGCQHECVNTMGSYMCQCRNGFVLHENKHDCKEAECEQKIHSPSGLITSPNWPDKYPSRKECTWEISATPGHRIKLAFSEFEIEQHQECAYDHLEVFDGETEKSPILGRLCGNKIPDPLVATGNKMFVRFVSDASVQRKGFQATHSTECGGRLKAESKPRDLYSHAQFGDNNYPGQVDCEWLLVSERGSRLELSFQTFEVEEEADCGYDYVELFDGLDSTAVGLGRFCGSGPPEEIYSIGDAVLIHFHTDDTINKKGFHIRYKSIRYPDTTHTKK

T2: Mouse TLL1 (mouse, UniProt Q62381 148-1013, limits assumed)
T2 sequence (looked up): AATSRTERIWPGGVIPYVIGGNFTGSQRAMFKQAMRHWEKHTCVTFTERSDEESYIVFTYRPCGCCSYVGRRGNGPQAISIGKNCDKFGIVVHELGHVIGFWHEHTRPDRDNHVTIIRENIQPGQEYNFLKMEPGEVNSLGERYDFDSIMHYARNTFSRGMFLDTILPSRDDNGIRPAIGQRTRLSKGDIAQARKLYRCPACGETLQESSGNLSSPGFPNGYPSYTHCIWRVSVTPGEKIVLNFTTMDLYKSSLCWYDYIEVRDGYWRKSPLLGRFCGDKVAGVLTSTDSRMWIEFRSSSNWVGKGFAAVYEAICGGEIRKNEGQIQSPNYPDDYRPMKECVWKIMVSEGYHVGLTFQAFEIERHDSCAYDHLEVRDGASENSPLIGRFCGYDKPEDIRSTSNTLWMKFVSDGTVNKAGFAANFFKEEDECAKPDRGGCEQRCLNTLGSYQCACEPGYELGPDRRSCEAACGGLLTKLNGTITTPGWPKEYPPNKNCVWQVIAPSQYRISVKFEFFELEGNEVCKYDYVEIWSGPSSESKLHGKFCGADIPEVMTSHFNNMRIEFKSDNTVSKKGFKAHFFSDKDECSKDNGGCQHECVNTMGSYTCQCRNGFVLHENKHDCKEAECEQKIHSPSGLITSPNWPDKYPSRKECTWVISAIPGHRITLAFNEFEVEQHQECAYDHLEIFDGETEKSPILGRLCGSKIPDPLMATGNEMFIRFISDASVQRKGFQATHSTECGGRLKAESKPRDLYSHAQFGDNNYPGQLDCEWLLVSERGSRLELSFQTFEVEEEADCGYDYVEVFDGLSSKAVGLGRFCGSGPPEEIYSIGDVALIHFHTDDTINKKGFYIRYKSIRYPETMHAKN

T3: Human TLL2 (human, UniProt Q9Y6L7 150-1015, limits assumed)
T3 sequence (looked up): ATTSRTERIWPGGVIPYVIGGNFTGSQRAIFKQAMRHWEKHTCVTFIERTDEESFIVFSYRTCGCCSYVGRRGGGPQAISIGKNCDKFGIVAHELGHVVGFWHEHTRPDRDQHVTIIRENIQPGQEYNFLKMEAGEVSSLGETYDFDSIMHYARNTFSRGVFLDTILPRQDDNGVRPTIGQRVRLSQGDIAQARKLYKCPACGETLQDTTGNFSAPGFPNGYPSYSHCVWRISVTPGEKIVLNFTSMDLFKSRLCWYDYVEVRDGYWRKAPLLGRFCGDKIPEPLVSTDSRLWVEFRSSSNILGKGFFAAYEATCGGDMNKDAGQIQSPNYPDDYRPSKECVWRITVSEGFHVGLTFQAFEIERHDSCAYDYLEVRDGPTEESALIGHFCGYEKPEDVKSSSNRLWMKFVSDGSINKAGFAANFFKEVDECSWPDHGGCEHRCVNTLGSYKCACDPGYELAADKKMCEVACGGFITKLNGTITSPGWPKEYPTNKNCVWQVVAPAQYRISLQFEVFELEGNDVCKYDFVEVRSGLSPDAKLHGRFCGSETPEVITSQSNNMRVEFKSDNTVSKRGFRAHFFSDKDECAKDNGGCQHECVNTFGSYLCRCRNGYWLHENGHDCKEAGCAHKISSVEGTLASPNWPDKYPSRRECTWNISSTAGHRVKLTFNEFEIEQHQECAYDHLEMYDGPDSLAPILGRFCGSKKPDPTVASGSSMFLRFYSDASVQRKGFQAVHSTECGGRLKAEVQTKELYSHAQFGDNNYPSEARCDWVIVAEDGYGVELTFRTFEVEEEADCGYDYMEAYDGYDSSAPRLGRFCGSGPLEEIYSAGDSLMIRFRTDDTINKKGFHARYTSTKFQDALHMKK

B1: 13Y039-4B06-4364 (antibody, human IgG1, kappa, V domains shown)
VH: QVQLVQSGAEVKKPGASVKVSCKASGYTFRGYYMSWVRQAPGQGLEWMGWINPNSGETIYAQKFQGRVTMTRDTSISTAYMELSRLRSDDTAVYYCARDTGELDGMNWYFDLWGRGTLVTVSS
VL: EIVLTQSPATLSLSPGERATLSCRASQSVSSYLAWYQQKPGQAPRLLIYDASNRATGIPARFSGSGSGTDFTLTISSLEPEDFAVYYCQQSDSWPPTFGGGTKVEIKR
notes: Fully human IgG1 LAGA, kappa; HEK expressed
B2: 13Y039-4B06-4376 (antibody, human IgG1, kappa, V domains shown)
VH: QVQLVQSGAEVKKPGASVKVSCKASGYTFMGYYMNWVRQAPGQGLEWMGWINPSSGETNYAQKFQGRVTMTRDTSISTAYMELSRLRSDDTAVYYCARDTGELDGMNWYFDLWGRGTLVTVSS
VL: EIVLTQSPATLSLSPGERATLSCRASQSVSSYLAWYQQKPGQAPRLLIYDASNRATGIPARFSGSGSGTDFTLTISSLEPEDFAVYYCQQSDSWPPTFGGGTKVEIKR
notes: as for B1
B3: 13Y039-4B06-4373 (antibody, human IgG1, kappa, V domains shown)
VH: QVQLVQSGAEVKKPGASVKVSCKASGYTFRSYYMNWVRQAPGQGLEWMGIINPSSGETSYAQKFQGRVTMTRDTSTSTVYMELSSLRSEDTAVYYCARDTGELDGMNWYFDLWGRGTLVTVSS
VL: EIVLTQSPATLSLSPGERATLSCRASQSVSSYLAWYQQKPGQAPRLLIYDASNRATGIPARFSGSGSGTDFTLTISSLEPEDFAVYYCQQSDSWPPTFGGGTKVEIKR
notes: as for B1

How the values were obtained:
Assay in all cases: cell-based or functional assay
[1] = molecular target: T1, Cyno TLL1
[2] = molecular target: T2, Mouse TLL1
[3] = molecular target: T3, Human TLL2

| Binder | IC50, FRET enzyme activity, 750 pM biotinylated cynoTLL-1 [1] | IC50, FRET enzyme activity, 800 pM biotinylated mTLL-1 [2] [nM] | IC50, FRET enzyme activity, 500 pM huTLL-2 [3] |
| --- | --- | --- | --- |
| B1 | 0.11 nM | 0.13 | 50 pM |
| B2 | 0.15 nM | 0.16 | 90 pM |
| B3 | 80 pM | 0.13 | 0.1 nM |
